# Where no end group is shown, it is not given here.
# B1: Phage-111 (peptide)
# peptide: MDWCPFYLWNECFY
# modifications: cysteine pairing not given here; also: phage-displayed pIII fusion, pIII and linker not given here
# B2: Phage-113 (peptide)
# peptide: MDWCPRDLWNVCFF
# modifications: cysteine pairing not given here; also: phage-displayed pIII fusion, pIII and linker not given here
# B3: Phage-116 (peptide)
# peptide: MDWCPRDLWYACFA
# modifications: cysteine pairing not given here; also: phage-displayed pIII fusion, pIII and linker not given here
# B4: Phage-114 (peptide)
# peptide: MDWCPRYLWFECFA
# modifications: cysteine pairing not given here; also: phage-displayed pIII fusion, pIII and linker not given here
# B5: Phage-112 (peptide)
# peptide: MHWCPRALWDVCYN
# modifications: cysteine pairing not given here; also: phage-displayed pIII fusion, pIII and linker not given here
# B6: Phage-109 (peptide)
# peptide: MDWCPKNLWHVCFN
# modifications: cysteine pairing not given here; also: phage-displayed pIII fusion, pIII and linker not given here
# B7: Phage-1339 (peptide)
# peptide: TCAAGATWSWPACF
# B8: Phage-477 (peptide)
# peptide: YCAGHSHEYLAKCE
# notes: also called YCAGHSHEYLAKCE
# B9: Phage-1343 (peptide)
# peptide: TCSAGAAYSWPACF
# B10: Phage-1337 (peptide)
# peptide: TCAAGAAWPWPQCL
# B11: Phage-473 (peptide)
# peptide: YCAGMSTIQLWLKC
# B12: Phage-1335 (peptide)
# peptide: LCAAGASWPWPVCL
# B13: Phage-1338 (peptide)
# peptide: TCSAGATYTWPKCF
# B14: Phage-475 (peptide)
# peptide: YCAGHTEEHYVKCM
# B15: Phage-1340 (peptide)
# peptide: TCAAGAAWGWPLCF
# B16: Phage-1334 (peptide)
# peptide: TCSAGATWPWPICL
# B17: Phage-1341 (peptide)
# peptide: LCAAGATYPWPLCL
# B18: Phage-1344 (peptide)
# peptide: LCAAGATYPWPTCL
# B19: Phage-476 (peptide)
# peptide: YCMGHSHEHIWKCL
# B20: Phage-474 (peptide)
# peptide: YCAGHMPQYEVKCL
# B21: Phage-1336 (peptide)
# peptide: TCSAGASYPWPLCL
# B22: Phage-1342 (peptide)
# peptide: TCSAGAAYPWPLCL
# B23: Phage-1990 (peptide)
# peptide: LMKWCIPEWMCVDS
# notes: tested as crude phage supernatant
# B24: Phage-1991 (peptide)
# peptide: LVKWCTPSWMCINL
# notes: as for B23
# B25: Phage-1994 (peptide)
# peptide: FDKWCIPTWMCELV
# notes: as for B23
# B26: Phage-1988 (peptide)
# peptide: LDNWCRPLWMCTGF
# notes: as for B23
# B27: Phage-1983 (peptide)
# peptide: IFEWCVPAWMCESR
# notes: as for B23
# B28: Phage-1992 (peptide)
# peptide: PVKWCIPDWMCAYL
# modifications: cysteine pairing not given here; also: displayed as fusion to phage pIII
# notes: as for B23
# B29: Phage-1986 (peptide)
# peptide: YEKWCTPPWMCEML
# notes: as for B23
# B30: Phage-1989 (peptide)
# peptide: EPKLCTPTWMCIGF
# notes: as for B23
# B31: Phage-1985 (peptide)
# peptide: LENWCIPRWMCHGF
# notes: as for B23
# B32: Phage-1993 (peptide)
# peptide: EVKWCTPPWMCMFD
# notes: as for B23
# B33: Phage-1987 (peptide)
# peptide: VEKWCTPPWMCAGW
# modifications: cysteine pairing not given here; also: displayed as fusion to phage pIII
# notes: as for B23
# B34: Phage-1982 (peptide)
# peptide: VGMLCKPSWMCDWL
# notes: as for B23
# B35: Phage-1981 (peptide)
# peptide: PPILCIPQWMCSPT
# modifications: cysteine pairing not given here; also: displayed as fusion to phage pIII
# B36: Phage-1984 (peptide)
# peptide: VVKMCRPAWMCDLV
# notes: as for B23
# Biological target: T1, anti-CD28 scFv (VH - linker 1 - VL) (biotinylated (site not given))
# T1 construct: Biotinylated scFv captured on neutravidin coated plates in the panning ELISA
# T1 sequence (scFv, as listed by the source): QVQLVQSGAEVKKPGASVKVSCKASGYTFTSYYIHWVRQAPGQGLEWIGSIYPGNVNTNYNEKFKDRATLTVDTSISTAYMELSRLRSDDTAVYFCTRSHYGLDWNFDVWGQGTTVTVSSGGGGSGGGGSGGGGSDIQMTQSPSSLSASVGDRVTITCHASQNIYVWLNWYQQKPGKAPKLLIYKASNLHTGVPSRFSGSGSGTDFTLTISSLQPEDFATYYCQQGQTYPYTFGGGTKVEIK
# Test: phage ELISA; biotinylated anti-CD28 scFv on neutravidin plate, clonal phage supernatant, anti-M13 HRP
# Description: (§1) Clonal phage were harvested as crude supernatants and screened via standard enzyme linked immunosorbent assays (ELISAs). […] Prior to the addition of clonal phage, wells were incubated with blocking buffer and CD28 soluble protein or blocking buffer alone. Without washing or aspirating, clonal phage supernatants were then added to the wells and incubated for a short time. Wells were then washed followed by detection of bound phage using a horse radish peroxidase conjugated anti-M13 antibody.
row,Binder,CD28 scFv signal
1,B1,2.53
2,B2,2.52
3,B3,2.47
4,B4,2.5
5,B5,2.53
6,B6,2.53

# Biological target: T2, Anti-CD28 Fab (SEQ ID NOs: 696, 697)
# T2 construct: Biotinylated and captured on neutravidin coated plates in the phage ELISA
# T2 sequence (VH, as listed by the source, chain 1 of 2): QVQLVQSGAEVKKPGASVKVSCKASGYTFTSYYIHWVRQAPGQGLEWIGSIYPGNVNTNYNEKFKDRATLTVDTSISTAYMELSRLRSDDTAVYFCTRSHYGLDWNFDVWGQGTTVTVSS
# T2 sequence (VL, as listed by the source, chain 2 of 2): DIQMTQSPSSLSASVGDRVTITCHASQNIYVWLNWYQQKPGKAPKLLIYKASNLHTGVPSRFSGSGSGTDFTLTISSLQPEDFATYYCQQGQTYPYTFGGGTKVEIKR
# Test: phage binding ELISA; Fab coated wells pre-incubated with CD28 antigen as competitor, anti-M13 HRP detection
# Description: (§2) Clonal phage were harvested as crude supematants and screened via standard ELISAs. […] Prior to the addition of clonal phage, wells were incubated with blocking buffer and CD28 antigen or blocking buffer alone. Without washing or aspirating, clonal phage supematants were then added to the wells and incubated for a short time. Wells were then washed followed by detection of bound phage using a horse radish conjugated anti-M13 antibody.
row,Binder,Anti-CD28 Fab signal in the presence of CD28
1,B7,0.07
2,B8,0.06
3,B9,0.15
4,B10,0.08
5,B11,0.09
6,B12,0.08
7,B13,0.06
8,B14,0.07
9,B15,0.07
10,B16,0.07
11,B17,0.07
12,B18,0.06
13,B19,0.07
14,B20,0.06
15,B21,0.06
16,B22,0.08

# Biological target: T3, Anti-PSMA Fab (SEQ ID NOs: 19, 20)
# T3 construct: Biotinylated and captured on neutravidin coated plates in the phage ELISA; also called 006 PSMA Fab
# Test: phage ELISA; biotinylated PSMA Fab on neutravidin plate, clonal phage supernatant, anti-M13-HRP detection;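 further: wells were preincubated with blocking buffer containing PSMA antigen or with blocking buffer only, then phage supernatant was added without washing for a brief incubation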
# Description: (§3) Clonal phage were harvested as crude supernatants and screened via standard ELISAs. […] Prior to the addition of clonal phage. wells were incubated with blocking buffer and PSMA antigen or blocking buffer alone. Without washing or aspirating, clonal phage supernatants were then added to the wells and incubated for a short time. Wells were then washed followed by detection of bound phage using a horse radish conjugated anti-M13 antibody.
row,Binder,"Phage binding ELISA, Anti-PSMA Fab signal"
1,B23,1.87
2,B24,1.87
3,B25,1.86
4,B26,1.87
5,B27,1.88
6,B28,1.86
7,B29,1.88
8,B30,1.87
9,B31,1.88
10,B32,1.86
11,B33,1.87
12,B34,1.88
13,B35,1.88
14,B36,1.88

# Biological target: T1, anti-CD28 scFv (VH - linker 1 - VL)
# Test: phage ELISA as above; wells pre-incubated with soluble CD28 as competitor;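 further: crude clonal phage supernatants tested, with bound phage detected by HRP-conjugated anti-M13 antibody, and reference wells given blocking buffer without CD28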
# Description: as §1
row,Binder,CD28 scFv signal in presence of CD28
1,B1,0.594
2,B2,0.137
3,B3,0.242
4,B4,0.21
5,B5,0.24
6,B6,0.248

# Biological target: T3, Anti-PSMA Fab (SEQ ID NOs: 19, 20)
# Test: phage ELISA; PSMA Fab on plate pre-incubated with PSMA antigen as competitor, anti-M13-HRP detection;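 further: clonal phage from crude supernatants added without washing to wells preblocked with or without PSMA antigen, washed, bound phage read out by ELISA with HRP-linked anti-M13 antibody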
# Description: as §3
row,Binder,"Phage binding ELISA, Anti-PSMA Fab signal in the presence of PSMA"
1,B23,0.0631
2,B24,0.0883
3,B25,0.145
4,B26,0.0836
5,B27,0.104
6,B28,0.115
7,B29,0.0833
8,B30,0.118
9,B31,0.152
10,B32,0.073
11,B33,0.0659
12,B34,0.0813
13,B35,0.0785
14,B36,0.0833

# Biological target: T2, Anti-CD28 Fab (SEQ ID NOs: 696, 697)
# Test: phage binding ELISA; biotinylated anti-CD28 Fab on neutravidin plate, clonal phage supernatant, anti-M13 HRP detection;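 further: wells pretreated with blocking buffer, either plus or minus CD28 antigen, then given crude phage supernatant briefly without washing in between, then washed before anti-M13 HRP readout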
# Description: as §2
row,Binder,"Anti-CD28 Fab (SEQ ID NOs: 696, 697) signal"
1,B7,2.23
2,B8,0.86
3,B9,1.89
4,B10,2.23
5,B11,2.16
6,B12,2.16
7,B13,1.87
8,B14,0.62
9,B15,2.3
10,B16,2
11,B17,2.39
12,B18,1.71
13,B19,0.87
14,B20,0.22
15,B21,2.38
16,B22,2.36

# — US20260242478A1 (published 2026)
